Measured values taken from US12012457 (SYNTHEKINE, dated 2024).

Biological target: T1, extracellular domain of mouse IL23R (mIL23R ECD) (mouse, UniProt Q8K4B4 24-374)
T1 construct: also called mIL-23 ECD antigen
T1 sequence: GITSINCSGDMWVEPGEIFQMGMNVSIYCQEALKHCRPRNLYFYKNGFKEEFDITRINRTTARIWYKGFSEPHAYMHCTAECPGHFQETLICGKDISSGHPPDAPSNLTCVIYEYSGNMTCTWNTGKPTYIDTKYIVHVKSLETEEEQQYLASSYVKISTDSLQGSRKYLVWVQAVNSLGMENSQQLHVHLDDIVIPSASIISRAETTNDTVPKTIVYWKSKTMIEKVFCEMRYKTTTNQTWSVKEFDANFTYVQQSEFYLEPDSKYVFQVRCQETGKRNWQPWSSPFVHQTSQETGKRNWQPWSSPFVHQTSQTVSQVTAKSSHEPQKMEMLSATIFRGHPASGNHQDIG
Assay: periplasmic extract ELISA (PE-ELISA), 96-well plate, colorimetric

| Binder | binding result |
| --- | --- |
| mIL23R VHH6 (VHH) VHH: QVQLQESGGGSVQAGGSLRLSCAASGYTSGNYWMGWFRQAPGKEREGVATLWTGGASTFYGDSVKGRFTISRDNFKNTLYLQMNSLKVEDTAMYYCAADPALRLGANILRPAEYKYWGQGTQVTVSS | binds |
| mIL23R VHH43 (VHH) VHH: QVQLQESGGGSVQAGGSLRLSCAASGYTFCMAWFRQAPGKEREGVARFYTRDGYTYYSDSVKGRFTISQDNAKNTLYLQMNSLKSEDTAMYYCAADLTRCSSNKNDFRYWGQGTQVTVSS | binds |
| mIL23R VHH29 (VHH) VHH: QVQLQESGGGLVQPGGSLRLSCAASGFTFSTSAMTWVRQAPGKGLDWVSGIDSGGTTVYADSVKGRFTISKDNAKNTLYLQMNSLKTEDTAVYYCATGLPWGNTWRTRGQGTQVTVSS | binds |
| mIL23R VHH21 (VHH) VHH: QVQLQESGGGLVQPGGSLRLSCATSGFTFSSSAMTWVRQAPGKGLDWVSGIDSGGTTVYADSVKGRFTISKDNAKNTLYLQMNSLKTEDTAVYYCATGLPWGNTWRTTGQGTQVTVSS | binds |
| mIL23R VHH35 (VHH) VHH: QVQLQESGGGLVQPGGSLRLACSASGFTFSSSAMTWVRQAPGKGLDWVSGIDSGGTTVYADSVKGRATILKDNAKNTLYLQMNSLKTEDTAVYYCATGLPWGNTWRTRGQGTQVTVSS | binds |
| mIL23R VHH32 (VHH) VHH: QVQLQESGGGLVRPGGSLRLSCAASGFTFSRSAMTWVRQAPGKGLDWVSGIDSGGTTVYADSVKGRFTISRDSAKNTLYLQMNSLKTEDTAVYYCAIGLPWGNTWRTRGQGTQVTVSS | binds |
| mIL23R VHH39 (VHH) VHH: QVQLQESGGGLVQPGGSLRLSCAASGFTFSRSAMTWVRQAPGKGLDWVSGIDSGGTTVYADSVKGRFTISRDSAKNTLYLQMNGLKTEDTAVYYCAIGLPWGNTWRTRGQGTQVTVSS | binds |
| mIL23R VHH37 (VHH) VHH: QVQLQESGGGLVQPGGSLRLSCATSGFTFSSGAMTWVRQAPGKGLDWVSGIDSGGTTVYADSVKGRFTISKDNAKNTLYLQMNSLKTEDTAVYYCATGLPWGNTWRTTGQGTQVTVSS | binds |
| mIL23R VHH14 (VHH) VHH: QVQLQESGGGLVQPGGSLRLSCAASGFTFRTSAMTWVRQAPGKGLDWVSGIDSGGTTVYADSVKGRFTISRDSAKNTLYLQMNSLKTEDTAVYYCAMGLPWGNTWRTRGQGTQVTVSS | binds |
| mIL23R VHH20 (VHH) VHH: QVQLQESGGGLVQPGGSLRLSCAASGFTFSSSAMTWVRQAPGKGLDWVSGIDSGGTTVYADSVKGRATILKDNAKNTLYLQMNSLKTEDTAVYYCATGLPWGNTWRTRGQGTQVTVSS | binds |
| mIL23R VHH38 (VHH) VHH: QVQLQESGGGLVQPGGSLRLSCAASGFTFSTSAMTWVRQAPGKGLDWVSGIDSGGTTVYADSVKGRFTISKDNAKNTLYLQMNSLKTEDTAVYYCATGLPWGNIWRTRGQGTQVTVSS | binds |
| mIL23R VHH33 (VHH) VHH: QVQLQESGGGLVQPGGSLRLSCTTSGFTFSSSAMTWVRQAPGKGLDWVSGIDSGGTTVYADSVKGRFTISKDNAKNTLYLQMNSLKTEDTAVYYCATGLPWGNTWRTTGQGTQVTVSS | binds |
| mIL23R VHH7 (VHH) VHH: QVQLQESGGGLVQPGGSLRLSCAASGFTFSRSAMTWVRQAPGKGLDWVSGIDSGGTTVYADSVKGRFTISRDSAKNTLYLQMNSLKTEDTAVYYCAIGLPWGNTWRTRGQGTQVTVSS | binds |
